Measured values taken from patent publication US11827885.
Each block holds one molecule with its values, some of them ahead of it.

Experiments:
RNase A = RNase A (UniProt P61823); assay: cell-based or functional assay
[1] = biological target: T1, Murine RNase Inhibitor (New England Biolabs, Ipswich, MA), Q91VI7
T1 chain: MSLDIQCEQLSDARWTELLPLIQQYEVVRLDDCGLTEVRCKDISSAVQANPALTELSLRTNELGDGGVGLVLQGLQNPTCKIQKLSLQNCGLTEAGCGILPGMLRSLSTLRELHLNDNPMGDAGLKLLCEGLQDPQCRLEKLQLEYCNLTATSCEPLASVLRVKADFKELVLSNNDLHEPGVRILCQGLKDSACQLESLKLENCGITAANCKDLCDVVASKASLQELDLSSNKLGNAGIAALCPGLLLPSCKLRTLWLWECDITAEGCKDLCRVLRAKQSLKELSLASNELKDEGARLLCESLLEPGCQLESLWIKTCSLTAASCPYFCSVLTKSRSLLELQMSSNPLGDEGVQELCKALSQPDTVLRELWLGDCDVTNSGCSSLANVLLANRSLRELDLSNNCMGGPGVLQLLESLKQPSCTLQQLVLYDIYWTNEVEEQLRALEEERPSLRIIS

inhibition of RNA degradation (gel), reaction at 60° C. (RNase A): < 50%
Molecule: SUPERase-In (ThermoFisher Scientific, Waltham, MA)

B1: RNase A (protein)
chain: KETAAAKFERQHMDSSTSAASSSNYCNQMMKSRNLTKDRCKPVNTFVHESLADVQAVCSQKNVACKNGQTNCYQSYSTMSITDCRETGSSKYPNCAYKTTQANKHIIVACEGNPYVPVHFDASV
RNA digestion (fluorescence of RNaseAlert RNA substrate, 37° C., 90 minutes) [1]: Three RNase A aptamers and Murine RNase Inhibitor are able to inhibit RNA digestion, but Murine Inhibitor show a slows a loss in RNase inhibition over time
